Publication PMC7561547 (2020)

Target: FGFR2b (Homo sapiens, UniProt P21802)
Assay: SPR

B1: bemarituzumab (antibody, V domains shown)
VH: QVQLVQSGAEVKKPGSSVKVSCKASGYIFTTYNVHWVRQAPGQGLEWIGSIYPDNGDTSYNQNFKGRATITADKSTSTAYMELSSLRSEDTAVYYCARGDFAYWGQGTLVTVSS
VL: DIQMTQSPSSLSASVGDRVTITCKASQGVSNDVAWYQQKPGKAPKLLIYSASYRYTGVPSRFSGSGSGTDFTFTISSLQPEDIATYYCQQHSTTPYTFGQGTKLEIKR
Kd: 0.58 nM
